Results on nine proteins are retold here after PMC4701049 (Biochemistry, 2015).

B1: Pseudomonas putida WCS358 PupR cytoplasmic anti-sigma domain (PupR-ASD), wild type (domain or fragment)
chain: GAMGMNGQGATSIPGEVAEQAMHWHLELQEPAVSAATLAACMSWRQAHPLHEHAWQRTQVFAQRLREMRSPGQRPLAHAALRPQQS
B2: PupR-ASD M18D (domain or fragment, Pseudomonas putida WCS358)
chain: GAMGMNGQGATSIPGEVAEQADHWHLELQEPAVSAATLAACMSWRQAHPLHEHAWQRTQVFAQRLREMRSPGQRPLAHAALRPQQS
B3: PupR-ASD Q42D (domain or fragment, Pseudomonas putida WCS358)
chain: GAMGMNGQGATSIPGEVAEQAMHWHLELQEPAVSAATLAACMSWRDAHPLHEHAWQRTQVFAQRLREMRSPGQRPLAHAALRPQQS
B4: PupR-ASD R53D (domain or fragment, Pseudomonas putida WCS358)
chain: GAMGMNGQGATSIPGEVAEQAMHWHLELQEPAVSAATLAACMSWRQAHPLHEHAWQDTQVFAQRLREMRSPGQRPLAHAALRPQQS
B5: PupR-ASD L22D (domain or fragment, Pseudomonas putida WCS358)
chain: GAMGMNGQGATSIPGEVAEQAMHWHDELQEPAVSAATLAACMSWRQAHPLHEHAWQRTQVFAQRLREMRSPGQRPLAHAALRPQQS
B6: PupR-ASD M38D (domain or fragment, Pseudomonas putida WCS358)
chain: GAMGMNGQGATSIPGEVAEQAMHWHLELQEPAVSAATLAACDSWRQAHPLHEHAWQRTQVFAQRLREMRSPGQRPLAHAALRPQQS
B7: PupR-ASD A35D (domain or fragment, Pseudomonas putida WCS358)
chain: GAMGMNGQGATSIPGEVAEQAMHWHLELQEPAVSAATLDACMSWRQAHPLHEHAWQRTQVFAQRLREMRSPGQRPLAHAALRPQQS
B8: PupR-ASD F57D (domain or fragment, Pseudomonas putida WCS358)
chain: GAMGMNGQGATSIPGEVAEQAMHWHLELQEPAVSAATLAACMSWRQAHPLHEHAWQRTQVDAQRLREMRSPGQRPLAHAALRPQQS
B9: PupR-ASD L61D (domain or fragment, Pseudomonas putida WCS358)
chain: GAMGMNGQGATSIPGEVAEQAMHWHLELQEPAVSAATLAACMSWRQAHPLHEHAWQRTQVFAQRDREMRSPGQRPLAHAALRPQQS

The first data set deals with the molecule itself. Nature of the data set: SEC.
On to B1, for which the “stoichiometry N” value worked out at 2.

The next data set concerns the molecule itself. The data set can be described thus: AUC.
B1 gave a Kd of 10.2 µM. As for B2, the Kd was 226 µM. Still for that read-out and setting: in the case of B3 it was 18.2 µM. The protein B4 yielded a Kd of 562 µM. This Kd lies about 31-fold higher than the previous one. Take B5: the Kd is greater than 200 µM. The protein B6 displayed a dissociation constant Kd of 11.6 µM. As for B7, the Kd stood at 13.5 µM. Same read-out and setting: then B8, with greater than 200 µM; and B9, with greater than 500 µM.
